16 sequences from a protein production outcome set (Wang et al. 2014) can be followed below.
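Further: failed if final PepcDB status was selected cloned or expressed and not failed if soluble or beyond.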

The data set can be described thus: label from the status in PepcDB records.
Turning to “MDSFKVVLEGPAPWGFRLQGGKDFNVPLSISRLTPGGKAAQAGVAVGDWVLSIDGENAGSLTHIEAQNKIRACGERLSLGLSRAQPAQSKPQKALTPPADPPRYTFAPSASLNKTARPFGAPPPTDSALSQNGQLLRQLVPDASKQRLMENTEDWRPRPGTGQSRSFRILAHLTGTEFMQDPDEEFMKKSSQVPRTEAPAPASTIPQESWPGPTTPSPTSRPPWAVDPAFAERYAPDKTSTVLTRHSQPATPTPLQNRTSIVQAAAGGGTGGGSNNGKTPVCHQCHKIIRGRYLVALGHAYHPEEFVCSQCGKVLEEGGFFEEKGAIFCPSCYDVRYAPSCAKCKKKITGEIMHALKMTWHVPCFTCAACKTPIRNRAFYMEEGAPYCERDYEKMFGTKCRGCDFKIDAGDRFLEALGFSWHDTCFVCAICQINLEGKTFYSKKDKPLCKSHAFSHV”, the protein production result was “failed”.

As to “MENEVTLLDLLWALRRAFLRLLLLALGVGLGVYALSLLLPKRYESAALLWLDLRPFPSQEALRPFPSQEALRPFPSQEALSPDQPLTSPPLASLVQALDLSLPTLRLSPAGEPASRFAQVEWDAKAQVLSLRAFGATPEEAQRRATKLLEEARSFLQARVREAYGGLAAAELARAEKALGLLEKALQEEVPQVSSRGSADLAPFLEAQGTPPPVARAQDPAATYLALKRAELLAEASRLQAQVAWLRDLLAQDGTWDRFLAESVLLSPTLPERPLAPRPLAYGVLAALGALLLGVLWVFLATVLRPGGAGVPQSDA”, the protein production result was “failed”.

Take “MNKTLIAAAVAGIVLLASNAQAQTVPEGYQLQQVLMMSRHNLRAPLANNGSVLEQSTPNKWPEWDVPGGQLTTKGGVLEVYMGHYMREWLAEQGMVKSGECPPPYTVYAYANSLQRTVATAQFFITGAFPGCDIPVHHQEKMGTMDPTFNPVITDDSAAFSEQAVAAMEKELSKLQLTDSYQLLEKIVNYKDSPACKEKQQCSLVDGKNTFSAKYQQEPGVSGPLKVGNSLVDAFTLQYYEGFPMDQVAWGEIKSDQQWKVLSKLKNGYQDSLFTSPEVARNVAKPLVSYIDKALVTDRTSAPKITVLVGHDSNIASLLTALDFKPYQLHDQNERTPIGGKIVFQRWHDSKANRDLMKIEYVYQSAEQLRNADALTLQAPAQRVTLELSGCPIDADGFCPMDKFDSVLNEAVK”: the protein production result is “not failed”.

In the case of “MSVLSALQYYFFYPSFFLTVIFPGLIFTLIFLLVTIWFERKAAAIVQLRYGPYYASKRLGGILQLFADAIKFVFSEIIIPNGVNQTLYAISPVLVLIFAFLPMALIPISTIPTQGSILSVYHGIFYDTQIHQGILVPYFIEYNLIGIIALESLYPILVIFLAWNTNNRFAIVGSIREAYLSVSYDVLIIISTLALGLEYHTLDVAKIVTSGIPGFIANPIAAFVFLVAMLIGSSRFPFEIVEAETELVIGPYTEYSGFLFVLTMAGSYVANLVYAILFVDLFLGGWLPFTGFVGAIFTVFKAAIVVFFAVFLRAVYGRYRIDQALRGSWKYFFPLALASLLLGVVVGYLWIR”, the protein production result is on record as “failed”.

Regarding “MANDKRTSPPTPRQPAKGGAAGKRQGHAAEGTRKPRARGEERKEKPADGRSATALTANERREIDDKQPPRAAVLHEVIRVQGEHELQRTLAALWWSAVAAGLTIGLSLMGMGLFRAALPEQEWAIIVSSFGYPMGFLAVILARQQLFTENTLTAVLPVMTEPTLEKAWQLLRLWSVVLFGNIVGTLLFAWAVLHLPIFNEAADAAFLEIGREVMHNDLAQMFAKGIVSGWMIATMVWLIPAAEGAKIWIIAMVTYLMALGSFTHIVVGSAEVGYLAFAGEIGWAEFLLKFALPTLGGNIVGGSLIFALISHAQIRSEG”, the protein production result is “failed”.

Take “MSVNDTGHSDNYTWNRQVYHRLKLALSLGLRRQLFLAVCDDLHLRNQVAARLHSTLAYPVGQVLYQSLDGKEASTSAYPRLVTLRLNLNEPNPIAQINQWLANYPPPIVGASKDNPGKPLPIPTFQLVGVEQLTKQTVASQRLFLHYLRLSEQFFAAQESSRFLESSVLLWVSRPWLSAIQQSAPQFWRWRTGVFVFAGEPTPTTQNSGHPERFSNSRSVKLGNLEQSALDELSMEGEVRSPSTTEFNFGDEVSLPTEILGNHPQPKEETPPLISELPPTQQKPQELTVRSSAANSSSLLSLSHVSQELTDLVLATINTKISSEAEDDWQPQELLLEIEELHSQSASGEILAAAYHQLGNLYRLRIEQGQSTLEDLMVAIIAYQESISYDENSPQLPDILNDLGTLYWMLYRTPPNLEEGQTYIEQGIEFYELALKIISPETHPDTYARVHNNLGTAYGDLARFASPAENWQQAVVSYSKALLHRTVESDPLKYAACQNNLGTAYWHLAQYNQPVVHLKKAIASYKQSLAHYNPQDEPLKYGMIQNNVGTAYWNLAQYEQPGENLQLAIDVYSEALKYRTAAMVPNACAATQNNLGTAYWHLANLPQTTKDVRQKLLILCINAYEEAIALAHSLSNVSLSFDLFATHNNLGLAHYQLVTDNYFSGDKGRRSHHLEAALDNHLQALNGLSKQPEAYQATFAYVVKTVRAFHNELGIQGQNLALSKVPGHLLPEILPKL”: the protein production entry is listed as “failed”.

Regarding “MGVLQRFERRLEGMIEGTFARAFKSELQPVEVASNVQREMDERAAIVAQGRTLVPNDFVVELSASDRERLAVYADNLGQELSKLAREYATEQGYSFVGPVRVRFETADDLQTGRFRVRSAVIRGDTVKDGEIIKPVTDHPRRGSVIPGRPRLLLSPGGAAADGSLTAQGAQQAYELTSEVTLLGRGTDCDLRLVDNGVSRHHAEIRLEGNEAILVDLNSTNGTFVNGQQVQRARLVDGSRISLGRTTMTFRRD”, the protein production result was “failed”.

Consider “MSNDKTPNSPESTPSTPADEVLDGLLAELSPEASAEPNPADDSGNPFTTIFKSVTDKATELGSAATEGLSNLQESATELAAETKEKFGNFAEAHKDDLGQLLTSAQGKAASFGEAVSDRFGELGESATESFGNLQEGAAGFAAGAKEKFGDFAEASQEKLSEIAETTQDKAASFGEAVSDRVEGLRGSAAEKLGNLQEGASELAAGAKEKFGDFAEASQEKLSEIVETTQGKAASFGEAVSDRVEGLRGSAAEKLGNLQEGASELAAGAKEKFGDFAEASQEKLSEIVETTQGKAASFGEAVSDRFGELGESAAEKLSNLQEDASEFAASAQEKLSTFTNARQEELGNLTKSAQSDVQDTANTVSEQLEQAPEAVSTAADSLKGAQEKLEAAVVASQSVAEKLKPAEVQSQSSLQLASESPSPSFFGRLLRKIKGFFRKLFG”, for which the protein production entry is given as “failed”.

Consider “MACARAWRTMSPCGGKQVHPLQECGLCSAPAGVARTHARQGADPMLPELGTFLLVLALLVALVQAVVPLAGAQRGRSSWMAVARPAAMVQLALIASAFAVLTHAFLVQDFSVRYVAENSNSLLPMMYRYSAVWGAHEGSLLLWTLVLALWTGAVAIWSRQLPAHVIARVLGVMALVSIGFLAFLLFTSNPFARLFPVPLEGGDLNPLLQDPGLIVHPPMLYCGYVGFAVPFAFAIAALLEGRMDARWLRWTRPWTNVAWSMLTVGIALGSWWAYYELGWGGWWFWDPVENASFMPWLVGTALLHSQAVTEKRGSFASWTLLLAIAAFALSLLGTFLVRSGVLTSVHSFAADPSRGLFILVFLLLVVGGSLVLYALRAPRLSLVDDPRRAFAGSSRETLLLLNNLLLTCACAMVLLGTLYPLLADALGLGKLSVGPPYFGTLFVVLMAPLVALVPFGPLTRWQREQASRPLAMLAPWAGLALAAGVLAWFAAPQGQLKAAVGVAGAAWVLLGTARFLWTRRAAKGRKFTPEMLGMVLAHLGVAVFLSGALLVEGLSLQREVALAPGQQVQIGRYALHFDGLEELRGPNYVSDRANLQVLKDDAPVGVVHAEKRRYASGGQTLTEAAIRPGPFGDLYVALGEPLGNQAWAVRVHLKPFVRWIWLGALLMALGGLVTAADRRFRRSPEIQDG”, for which the protein production result is reported as “failed”.

Take “MGVALRPLLAEYKESPGWDGLGGIAAVDAFNALYQFLSGIRQADGAPLMDGQGRITSHLSGLLFRNANLIEKNITPIYVFDGKPPVFKASTLSKRREVRENAADAWEKALKEGDEESARKYAMASSKIDAFIIDSSKELLSALGIAWIQAPEEGEAQSSFMTKNGDVTYAVSQDYDSLLFGAPDLVRNITVSGKKRIRGKVLSVYPERLRLEEVLTGLSVTQEELIQIALLIGTDYNSGVPGVGPKTAVKIVREGKFYDRIGESENAAEPDQLIGYFMDPPVERSYNIESRSPDPDRVIDLLCGEHGFTQERVEAGLERLGAKKGQATLDAWF”: the protein production entry is “failed”.

For “MKKGYMYIALTTIIFSTMEIALKLVSKSFNPIQLNFTRFFIGGLFLVPFALNTLHKRHLSISTKDLRFFALLGLLGTVISMSLYQLAVQNTKASVVAVLFSCNPVFVTILAFFLLREAIHKNNIAALILEVIGTIVIIDPLNTKLSILGLALTIASTLIFAAYGVFGKKKCAKYGGIVVTCFGFLFGSIEMLVLIGITHITPIANLFSSNGIAIFSNIPLFTGYSLKNLPLMCFICLINTGAGFACYFKAMEETSAQTTSLVFFFKPILAPILALILLHEIIPVNMIIGILFILAGSISSILPELLAQRQTKLEKTA”, the protein production entry is “failed”.

As for “QDHYKVLGLSKLRWQATSDEIRFCYRQKVLKHHPDKKKHRGIVMEKEEYFTCITKAYEQVGMSDVK”, the protein production result is given as “failed”.

On to “MKLLREMLIVVFIYFLGEFISKSFIHSVPGNIIGMLILLVLLCTKVVKVESIDCVAQFFLDHLAFFFVPAGVGLMTSVGLLEGNVLKLLFICIASTFVVIGVTGLVVQALIRRKEKKLLGDEVNE”, for which the protein production entry is “failed”.

Consider “PTNIHKIHEVQKKLQEEVSIVLIDIADIIVNPKKENGYSRDLYTLNSLIDSSISETYDNINNTLLSDTRFFLEHMDIIKSQRDILENLYSYVSQLNSTPPQAHILSAFIHKIGYTEFEAETGNLLLEELKRLMISMKNQPLPVDRTEFENRAILFLCLTELKQFLVNRKHAQML”, for which the protein production entry is “not failed”.

As to “EFTTMLGPAVLGLSLWALLHPGTGAPLCLSQQLRMKGDYVLGGLFPLGEAEEAGLRSRTRPSSPVCTRFSSNGLLWALAMKMAVEEINNKSDLLPGLRLGYDLFDTCSEPVVAMKPSLMFLAKAGSRDIAAYCNYTQYQPRVLAVIGPHSSELAMVTGKFFSFFLMPQVSYGASMELLSARETFPSFFRTVPSDRVQLTAAAELLQEFGWNWVAALGSDDEYGRQGLSIFSALAAARGICIAHEGLVPLPRADDSRLGKVQDVLHQVNQSSVQVVLLFASVHAAHALFNYSISSRLSPKVWVASEAWLTSDLVMGLPGMAQMGTVLGFLQRGAQLHEFPQYVKTHLALATDPAFCSALGEREQGLEEDVVGQRCPQCDCITLQNVSAGLNHHQTFSVYAAVYSVAQALHNTLQCNASGCPAQDPVKPWQLLENMYNLTFHVGGLPLRFDSSGNVDMEYDLKLWVWQGSVPRLHDVGRFNGSLRTERLKIRWHTSDNQKPVSRCSRQCQEGQVRRVKGFHSCCYDCVDCEAGSYRQNPDDIACTFCGQDEWSPERSTRCFRRRSRFLAWGEPAVLLLLLLLSLALGLVLAALGLFVHHRDSPLVQASGGPLACFGLVCLGLVCLSVLLFPGQPSPARCLAQQPLSHLPLTGCLSTLFLQAAEIFVESELPLSWADRLSGCLRGPWAWLVVLLAMLVEVALCTWYLVAFPPEVVTDWHMLPTEALVHCRTRSWVSFGLAHATNATLAFLCFLGTFLVRSQPGRYNRARGLTFAMLAYFITWVSFVPLLANVQVVLRPAVQMGALLLCVLGILAAFHLPRCYLLMRQPGLNTPEFFLGGGPGDAQGQNDGNTGNQGKHE”, the protein production entry is recorded as “failed”.

For “MVKVSIICTNYNKGSWIGEAIDSFLKQETSFPYEIIIVDDASTDHSVHIIKTYQKQYPDLIRAFFNQENQGITKTWSDICKKARGQYIARCDGDDYWIDPFKLQKQIDLLETSPESKWSNTDFDMVDSKGNIIHKDVLKNNIIPFMDSYEKMLALKGMTMASTWLVETKLMLEINDRINKDAVDDTFNIQLELFKKTKLAFLRDSTTVYRMDAESDSRSKDSEKLAQRFDRLLETQLEYIEKYPDSDYKKVLEYLLPKHNDFEKVLAQDGKNVWDNQQITIYLAKGDDQEFSEENCFQFPLQHSGNIQLTFPENIRKIRIDLSEIPSYYRQVSLVNTTVNTELLPTWTNAKVFGYSYYFIAPDPQMIYDLTAQEGQDFKLTYEWFNVDRPSQPDFLANHLVKELDQKKVELKMLSPYKYQYQKAVAERDLYLEQLNEMVVRYNSVTHSRRWTIPTKIINLFRRKK”, the protein production entry is on record as “failed”.
